A word on the Kd: it is the constant that tells how readily two partners part at equilibrium.

Square brackets hold non-standard residues; d marks the D form. Ends that are not written are not given here. pT = C[C@@H](OP(=O)(O)O)[C@H](N)C(=O)O; pS = N[C@@H](COP(=O)(O)O)C(=O)O

The target in the first test is biotinylated HLA-A*02:01 with β2m (human). Nature of the test: AlphaScreen, peptide titrated on biotinylated HLA + b2m. Conditions: remark: other sources report otherwise.
On to VLL[pS]PVPEL [VLLsPVPEL], for which the Kd is 150 nM.

As for SLFGG[pS]VKL [SLFGGsVKL], the Kd worked out at 53.9 nM.

For GPRSA[pS]LL[pS]L [GPRSAsLLsL], the dissociation constant Kd is 500 nM.

Consider RVA[pS]PTSGV [RVAsPTSGV], for which the Kd was 242 nM.

With GLLG[pS]PVRA [GLLGsPVRA], the Kd was 431 nM.

Turning to VLY[pS]PQMAL [VLYsPQMAL], the equilibrium dissociation constant (Kd) came to 40.5 nM.

SMTR[pS]PPRV [SMTRsPPRV]: the Kd turned out to be 701 nM.

For the molecule KLIDRTE[pS]L [KLIDRTEsL], the Kd was 260 nM.

For RQA[pS]IELPSM [RQAsIELPSM], the dissociation constant (Kd) came to 20.4 nM.

RQA[pS]IELPSMAV [RQAsIELPSMAV]: the equilibrium dissociation constant (Kd) was determined as 14.8 nM.

Regarding RTL[pS]HISEA [RTLsHISEA], the equilibrium dissociation constant (Kd) stood at 157 nM.

In the next test the target is biotinylated HLA-B*07:02 with β2m (human). The description is as above. Conditions: remark: other sources report otherwise.
Turning to QPR[pT]PSPLVL [QPRtPSPLVL], the equilibrium dissociation constant (Kd) was determined as 199 nM.

As to GPRSA[pS]LL[pS]L [GPRSAsLLsL], the Kd amounted to 50 nM.

Consider RPT[pS]RLNRL [RPTsRLNRL], for which the Kd is 117 nM.

As to RVA[pS]PTSGV [RVAsPTSGV], the Kd is 227 nM.

As for TPR[pS]PPLGLI [TPRsPPLGLI], the dissociation constant Kd was found to be 91 nM.

Take GPRSA[pS]LLSL [GPRSAsLLSL]: the Kd came out at 34.1 nM.

Take RPS[pS]LPDL [RPSsLPDL]: the equilibrium dissociation constant (Kd) is 369 nM.

For the molecule EPR[pS]PSHSM [EPRsPSHSM], the Kd came to 199 nM.

As to RVR[pS]PTRSP [RVRsPTRSP], the Kd amounted to 551 nM.

As to GPRSASLL[pS]L [GPRSASLLsL], the dissociation constant Kd amounted to 47.1 nM.

Regarding RPRPV[pS]PSSL [RPRPVsPSSL], the dissociation constant (Kd) amounted to 218 nM.

For TPR[pS]PPLGL [TPRsPPLGL], the Kd is 75.5 nM.

The target of a further test is biotinylated HLA-C*07:01 with β2m (human). Described as above. The note with it: remark: other sources report otherwise.
Regarding RTL[pS]HISEA [RTLsHISEA], the Kd was found to be 380 nM.

These data come from patent US20220275049A1, “ANTIGENIC POLYPEPTIDES AND METHODS OF USE THEREOF” (AGENUS INC., priority 2019, published 2022).
